The values below come from patent publication US20240190915.

In the series the target is AGR2 (human, endogenous in PDAC cells) (UniProt O95994).

Consider “POLR2A (human, endogenous in PDAC cells)”, for which the “phosphorylation levels of Ser2/5 residues (p-POLR2A^ser2/5) after AGR2 siRNA transfection, western blot” value is on record as “AGR2 downregulation (by siRNA transfection) reduces the phosphorylation levels of Ser2/5 residues (p-POLR2A^ser2/5), but not the POLR2A expression”.
